Some targets named below: HLA-A*03:01; HLA-A*11:01; HLA-A*31:01; HLA-A*33:01; HLA-A*68:01.
Experiment in all cases: IEDB peptide-MHC binding, purified MHC/competitive/radioactivity; filed as Kd, often an IC50 or EC50 that approximates it; ≥ and ≤ were set here for values at or beyond the usual limits of such assays
The mark [1] stands for this setting: source organism: Vaccinia virus WR.
Setting [2] is: source organism: Mammarenavirus lassaense.
The mark [3] stands for this setting: source organism: SARS coronavirus Tor2.
[4] abbreviates: source organism: Lassa virus Josiah.
Setting [5] is: source organism: Vaccinia virus Copenhagen.

DSDVSLIIEY: the Kd with HLA-A*03:01 (setting [1]) worked out at 4820 nM; with HLA-A*11:01 (setting [1]) it was 2730 nM; with HLA-A*31:01 (setting [1]), 10300 nM; in the assay with HLA-A*33:01 (setting [1]) it was 4690 nM; with HLA-A*68:01 (setting [1]), 205 nM.
For DVSLSAYIIR, the Kd with HLA-A*03:01 (setting [1]) amounted to 2410 nM; with HLA-A*11:01 (setting [1]), 609 nM; in the assay with HLA-A*31:01 (setting [1]), 387 nM; with HLA-A*33:01 (setting [1]) it was 1120 nM; in the assay with HLA-A*68:01 (setting [1]), 240 nM.
In the same order, the values of EIARIENEMK are 5610 nM, 3630 nM, not below 70000 nM, 7050 nM and 7.11 nM.
For the sequence ENAVWDQCK, the dissociation constant Kd was not below 78000 nM with HLA-A*03:01 (setting [2]); not below 77900 nM with HLA-A*11:01 (setting [2]); not below 77900 nM in the assay with HLA-A*31:01 (setting [2]); not below 38000 nM in the assay with HLA-A*33:01 (setting [2]); 1480 nM in the assay with HLA-A*68:01 (setting [2]).
In the case of FFASFYYIWK, the Kd in the assay with HLA-A*03:01 (setting [3]) turned out to be 285 nM; in the assay with HLA-A*11:01 (setting [3]), 243 nM; with HLA-A*31:01 (setting [3]), 734 nM; with HLA-A*33:01 (setting [3]), 60.9 nM; with HLA-A*68:01 (setting [3]), 86.2 nM.
For the sequence FIQWTGGNIR, the Kd with HLA-A*03:01 (setting [1]) is not below 29800 nM; in the assay with HLA-A*11:01 (setting [1]), not below 22000 nM; in the assay with HLA-A*31:01 (setting [1]) it was 3860 nM; with HLA-A*33:01 (setting [1]), 2050 nM; with HLA-A*68:01 (setting [1]), 112 nM.
In the case of FLWTQSLRR, the Kd in the assay with HLA-A*03:01 (setting [4]) was determined as 40.7 nM; with HLA-A*11:01 (setting [4]), 723 nM; with HLA-A*31:01 (setting [4]), 2050 nM; in the assay with HLA-A*33:01 (setting [4]), 2900 nM; in the assay with HLA-A*68:01 (setting [4]) it was 320 nM.
FQGKFKKIVK: the Kd with HLA-A*03:01 (setting [3]) was 9460 nM; with HLA-A*11:01 (setting [3]), 2880 nM; with HLA-A*31:01 (setting [3]), 13400 nM; with HLA-A*33:01 (setting [3]), not below 24700 nM; in the assay with HLA-A*68:01 (setting [3]), not below 24200 nM.
Regarding FSSLRREHIK, the Kd with HLA-A*03:01 (setting [1]) is 1020 nM; with HLA-A*11:01 (setting [1]) it was 277 nM; with HLA-A*31:01 (setting [1]), 144 nM; in the assay with HLA-A*33:01 (setting [1]) it was 17400 nM; in the assay with HLA-A*68:01 (setting [1]), 94.1 nM.
GFNTLKPIFK: the Kd with HLA-A*03:01 (setting [3]) came out at 140 nM; with HLA-A*11:01 (setting [3]), 105 nM; with HLA-A*31:01 (setting [3]), 1830 nM; with HLA-A*33:01 (setting [3]), 19600 nM; in the assay with HLA-A*68:01 (setting [3]), 1960 nM.
As to GLYNHNNTTY, the Kd with HLA-A*03:01 (setting [1]) came out at 21 nM; with HLA-A*11:01 (setting [1]), 75.5 nM; with HLA-A*31:01 (setting [1]), 7950 nM; with HLA-A*33:01 (setting [1]), 14200 nM; with HLA-A*68:01 (setting [1]), 938 nM.
For GSSKGNCAIK the same measures were 25 nM, 26.1 nM, 3480 nM, not below 29100 nM and 23.1 nM.
In the same order, the values of GVRVRVAVNK are 52.2 nM, 840 nM, 12100 nM, not below 70000 nM and 2190 nM.
Consider HIIDSFNIR, for which the equilibrium dissociation constant (Kd) in the assay with HLA-A*03:01 (setting [1]) stood at 1680 nM; in the assay with HLA-A*11:01 (setting [1]) it was 149 nM; in the assay with HLA-A*31:01 (setting [1]), 1.12 nM; in the assay with HLA-A*33:01 (setting [1]), 732 nM; in the assay with HLA-A*68:01 (setting [1]), 0.448 nM.
For HVCNATDFWR the same measures were 6760 nM, 450 nM, 8.14 nM, 383 nM and 37.9 nM.
For IISIRPRVTK the same measures were 55.5 nM, 125 nM, 425 nM, 5690 nM and 180 nM.
In the same order, the values of ILAALFMYY are 0.175 nM, 0.309 nM, 6400 nM, 16000 nM and 36.3 nM.
ILCFTIKRK: the Kd in the assay with HLA-A*03:01 (setting [3]) is 1000 nM; with HLA-A*11:01 (setting [3]), 7710 nM; in the assay with HLA-A*31:01 (setting [3]), 6680 nM; with HLA-A*33:01 (setting [3]), not below 45000 nM; with HLA-A*68:01 (setting [3]) it was 17200 nM.
For the sequence ILEYLYIMR, the Kd was 1570 nM with HLA-A*03:01 (setting [1]); 1090 nM with HLA-A*11:01 (setting [1]); 97.6 nM with HLA-A*31:01 (setting [1]); 426 nM with HLA-A*33:01 (setting [1]); 303 nM with HLA-A*68:01 (setting [1]).
As to ILNFLDWIK, the Kd was found to be 189 nM with HLA-A*03:01 (setting [5]); 155 nM with HLA-A*11:01 (setting [5]); 427 nM with HLA-A*31:01 (setting [5]); 1290 nM with HLA-A*33:01 (setting [5]); 158 nM with HLA-A*68:01 (setting [5]).

For orientation: Kd means the free concentration of one partner at which half of the binding sites on the other are occupied at equilibrium, for simple one-to-one binding.

(Values after the Immune Epitope Database (IEDB).)
